This assay concerns the target taxol-stabilized brain microtubules (UniProt P02550).
Chain of UniProt P02550 (P02550 whole entry, looked up): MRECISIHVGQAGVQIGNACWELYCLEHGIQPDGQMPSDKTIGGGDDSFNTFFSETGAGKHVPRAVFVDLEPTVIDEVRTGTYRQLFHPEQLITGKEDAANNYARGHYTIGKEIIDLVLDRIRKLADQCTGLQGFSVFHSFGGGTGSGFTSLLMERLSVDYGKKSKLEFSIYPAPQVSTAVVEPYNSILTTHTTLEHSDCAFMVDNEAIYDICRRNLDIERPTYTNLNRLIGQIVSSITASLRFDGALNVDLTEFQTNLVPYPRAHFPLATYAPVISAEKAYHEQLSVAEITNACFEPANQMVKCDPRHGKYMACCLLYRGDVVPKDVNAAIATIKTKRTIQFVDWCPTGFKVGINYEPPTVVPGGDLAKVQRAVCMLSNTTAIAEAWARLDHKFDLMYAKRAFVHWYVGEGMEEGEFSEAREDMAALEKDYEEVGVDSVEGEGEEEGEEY

B1: katanin MEI-1/MEI-2 mutant K119K120R128R130K134AAAAA (complex)
chain 1: MNGDVQSVIRGYLERAQVAKTMSDAGRWNEAGDLLRQLMTDVKSCKISASNRDEHDARNTFLRALEANLKLVQQNVRDEDDLHEAMTRQSGSPEPPADPDVWSKPSPPLPSSSKFGATAAGVGAAGPAPAEISASTSSMSTNPADVKPANPTQGILPQNSAGDSFDASAYDAYIVQAVRGTMATNTENTMSLDDIIGMHDVKQVLHEAVTLPLLVPEFFQGLRSPWKAMVLAGPPGTGKTLIARAIASESSSTFFTVSSTDLSSKWRGDSEKIVRLLFELARFYAPSIIFIDEIDTLGGQRGNSGEHEASRRVKSEFLVQMDGSQNKFDSRRVFVLAATNIPWELDEALRRRFEKRIFIPLPDIDARKKLIEKSMEGTPKSDEINYDDLAARTEGFSGADVVSLCRTAAINVLRRYDTKSLRGGELTAAMESLKAELVRNIDFEAALQAVSPSAGPDTMLKCKEWCDSFGAM
chain 2: MSGLDDRKKLTHAKNRKPLNDIPKSAENRPNTRSTSSRRGAEKDVPITFIGSSRTVKADLPEFTNTRSRRPLHSESKKELSRNPVSRGEEHSSSLPKSSPESSVSVMSSNASLWSACTEEVNKIGVCAKRESRNLRVYKMKSFTSNMEQILSNDNQLAPTVIRILNSRNSWCLNSCHACLTFIMENITSDNYGKRSACLKALASITNSLLDTIIGFASTKTRRIGVDVVAEERAAKATECIHNFRKIVKNRDKIYKQIDQETIYKLDAILERLKKVSSHK
Take B1: the microtubule stimulated ATPase, reduction against wild type was 50%.

Values taken from publication PMC7060837.
